Tests used:
[1] = biological target: T1, Glypican-3 (GPC3) (UniProt P51654 P51654:25-554); assay: filter; gemcitabine in loop; values only in figure
[2] = biological target: T1, Glypican-3 (GPC3); assay: Kd similar to 12-10; GPC3-Cy5; value only in figure; conditions: label: 5' Cy5 (cell assays)
[3] = biological target: T1, Glypican-3 (GPC3); assay: filter; gemcitabine at 3' end; values only in figure

T1 sequence (P51654 25-554, one chain of several): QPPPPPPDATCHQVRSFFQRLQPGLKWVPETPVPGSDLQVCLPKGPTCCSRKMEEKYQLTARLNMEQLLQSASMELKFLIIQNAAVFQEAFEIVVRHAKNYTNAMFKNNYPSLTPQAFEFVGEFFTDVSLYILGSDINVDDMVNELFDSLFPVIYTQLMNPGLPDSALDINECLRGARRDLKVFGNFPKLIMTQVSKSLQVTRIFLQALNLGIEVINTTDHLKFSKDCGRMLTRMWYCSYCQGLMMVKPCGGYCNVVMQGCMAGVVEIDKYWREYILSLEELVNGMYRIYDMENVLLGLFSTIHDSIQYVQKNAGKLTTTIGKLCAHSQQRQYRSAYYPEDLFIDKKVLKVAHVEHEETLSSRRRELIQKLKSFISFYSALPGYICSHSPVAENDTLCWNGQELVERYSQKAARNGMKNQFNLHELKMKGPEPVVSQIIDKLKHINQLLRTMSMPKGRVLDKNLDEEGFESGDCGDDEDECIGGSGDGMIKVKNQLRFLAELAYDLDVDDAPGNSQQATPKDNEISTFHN

B1: 12-10 G(2)L (ssDNA)
DNA: GGGAAGTGAATGCGTTGAATTATGTCCCTTCAGTCATCAC
modifications: n = BzdU; S = gemcitabine [BzdU (T) at 7,11,15,16,20,21,23,25,29,30,34,37; gemcitabine (C) at 26,27]
Question: Does B1 bind [1]?
Answer: binds

B2: 12-12 (ssDNA)
DNA: GTGAATGCGTTGAATTATGTCCCTTCAGTCATCAC
modifications: n = BzdU; 3' idT
Question: Does B2 bind [2]?
Answer: binds

B3: 12-10 G(2)3' (ssDNA)
DNA: GGGAAGTGAATGCGTTGAATTATGTCCCTTCAGTCATCACCA
modifications: n = BzdU; S = gemcitabine [BzdU (T) at 7,11,15,16,20,21,23,25,29,30,34,37; gemcitabine (C) at 40,41]
Question: Does B3 bind [3]?
Answer: binds
